# T1: TSP1-2 substrate, (HiLyteFluor-488)-SSMVLELRGLRTIVT-K(QXL520)-NH2
# T1 chain: SSMVLELRGLRTIVTK
# T2: COMP1 candidate peptide, (Donor) GMQQSVRTGLPS (K-Quencher)
# T2 chain: GMQQSVRTGLPS
# T3: COMP2 candidate peptide, (Donor) SPGFRC(Acm)EAC(Acm)PPGYS (K-Quencher)
# T3 chain: SPGFRCEACPPGYS
# T4: TSP1-4 substrate, (HiLyteFluor-488)-EENKELANELRRPPL-K(QXL520)-NH2
# T4 chain: EENKELANELRRPPLK
# T5: TSP1-1 substrate, (HiLyteFluor-488)-DELSSMVLELRGLRT-K(QXL520)-NH2
# T5 chain: DELSSMVLELRGLRTK
# T6: TSP1-5 substrate, (HiLyteFluor-488)-SSMVLELRGLRT-K(QXL520)-NH2
# T6 chain: SSMVLELRGLRTK
# T7: TSP1-3 substrate, (HiLyteFluor-488)-KVTEENKELANELRR-K(QXL520)-NH2
# T7 chain: KVTEENKELANELRRK
# T8: (HiLyteFluor-488)-DELSSMVLELRGLRT-K(QXL520)-E-NH2
# T8 chain: DELSSMVLELRGLRTK
# B1: rADAMTS-7 (Rat 1-575)-Flag (protein)
# chain: LPTEGRAGLDIVHPVRVDAGGSFLSYELWPRVLRKRDVSAAQASSAFYQLQYQGRELLFNLTTNPYLLAPGFVSEIRRRSNLSNVHIQTSVPTCHLLGDVQDPELEGGFAAISACDGLRGVFQLSNEDYFIEPLDEVPAQPGHAQPHMVYKHKRSGQQDDSRTSGTCGVQGSPELKHQREHWEQRQQKRRQQRSISKEKWVETLVVADSKMVEYHGQPQVESYVLTIMNMVAGLYHDPSIGNPIHITVVRLIILEDEEKDLKITHHADDTLKNFCRWQKNVNMKGDDHPQHHDTAILLTRKDLCATMNHPCETLGLSHVAGLCHPQLSCSVSEDTGLPLAFTVAHELGHSFGIQHDGTGNDCESIGKRPFIMSPQLLYDRGIPLTWSRCSREYITRFLDRGWGLCLDDRPSKGVINFPSVLPGVLYDVNHQCRLQYGPSSAYCEDVDNVCYTLWCSVGTTCHSKMDAAVDGTSCGKNKWCLNGECVPEGFQPETVDGGWSGWSAWSVCSRSCGVGVRSSERQCTQPVPKNKGKYCVGERKRYRLCNLQACPENLYFQGDYKDDDDK
# B2: purified ADAMTS-7 E389Q catalytic inactive proteins (protein)
# chain: SVSKEKWVETLVVADAKMVEYHGQPQVESYVLTIMNMVAGLFHDPSIGNPIHITIVRLVLLEDEEEDLKITHHADNTLKSFCKWQKSINMKGDAHPLHHDTAILLTRKDLCAAMNRPCETLGLSHVAGMCQPHRSCSINEDTGLPLAFTVAHQLGHSFGIQHDGSGNDCEPVGKRPFIMSPQLLYDAAPLTWSRCSRQYITRFLDRGWGLCLDDPPAKDIIDFPSVPPGVLYDVSHQCRLQYGAYSAFCEDMDNVCHTLWCSVGTTCHSKLDAAVDGTRCGENKWCLSGECVPVGFRPEAV
# B3: Rat/human ADAMTS-12 chimera, rPro-hCD (Rat 1-244/Human 241-543)-3xFLAG (protein)
# chain: HGRQAQPWPVRFPDPKQEHFIKSLPEYHIVSPVQVDASGHFLSYGLHHPVTGSRKKRAAGGSGDQVYYRISHEEKNLFFNLTVNWEFLSNGYVVERRYGNLSHVKMAASSGQPCHLRGTVLQQGPTIRMGTAALSACQGLTGFFHLPHGDFFIEPVKKHPLTEEGYQPHVIYRRQSYRVPETKEPTCGLKDSLDNSVKQELQREKWERKNWPSRSLSRRSISKERWVETLVVADTKMIEYHGSENVESYILTIMNMVTGLFHNPSIGNAIHIVVVRLILLEEEEQGLKIVHHAEKTLSSFCKWQKSINPKSDLNPVHHDVAVLLTRKDICAGFNRPCETLGLSHLSGMCQPHRSCNINEDSGLPLAFTIAHELGHSFGIQHDGKENDCEPVGRHPYIMSRQLQYDPTPLTWSKCSEEYITRFLDRGWGFCLDDIPKKKGLKSKVIAPGVIYDVHHQCQLQYGPNATFCQEVENVCQTLWCSVKGFCRSKLDAAADGTQCGEKKWCMAGKCITVGKKPESIPGGGGSDYKDHDGDYKDHDIDYKDDDDK
# Experiments:
# [1] = target: T1, TSP1-2 substrate, …
# [2] = target: T2, COMP1 candidate peptide, (Donor) …
# [3] = target: T3, COMP2 candidate peptide, (Donor) …
# [4] = target: T4, TSP1-4 substrate, …
# [5] = target: T5, TSP1-1 substrate, …
# [6] = target: T6, TSP1-5 substrate, …
# [7] = target: T7, TSP1-3 substrate, …
# [8] = target: T8, (HiLyteFluor-488)-DELSSMVLELRGLRT-K(QXL5 …)
Protein,FRET peptide cleavage (Relative Fluorescence Units over time) [1],kcat [1] [s⁻¹],kcat [2] [s⁻¹],kcat [3] [s⁻¹],kcat [4] [s⁻¹],FRET peptide cleavage (Relative Fluorescence Units over time) [5],kcat [5] [s⁻¹],FRET peptide cleavage (Relative Fluorescence Units over time) [6],kcat [6] [s⁻¹],kcat [7] [s⁻¹],FRET peptide cleavage (Relative Fluorescence Units over time) [2],FRET peptide cleavage (Relative Fluorescence Units over time) [3],FRET peptide cleavage (Relative Fluorescence Units over time) [4],FRET peptide cleavage (Relative Fluorescence Units over time) [7],FRET peptide cleavage (increase of fluorescence intensity) [8]
B1,along with S2 and S5 peptides containing the E289⬇L290 cleavage site,0.000128,8.17e-06,8.33e-06,4.33e-05,Activity data from the rat ADAMTS-7 construct identified TSP1 S1 (SEQ ID NO: 4) as the substrate,0.000167,along with S2 and S5 peptides containing the E289⬇L290 cleavage site,4.17e-05,2.33e-05,,,,,
B2,Significant activity was not observed with substrates ... with incubation with purified ADAMTS-7 E389Q catalytic inactive proteins (data not shown,,,,,Significant activity was not observed with substrates ... with incubation with purified ADAMTS-7 E389Q catalytic inactive proteins (data not shown,,Significant activity was not observed with substrates ... with incubation with purified ADAMTS-7 E389Q catalytic inactive proteins (data not shown,,,Significant activity was not observed with substrates ... with incubation with purified ADAMTS-7 E389Q catalytic inactive proteins (data not shown,Significant activity was not observed with substrates ... with incubation with purified ADAMTS-7 E389Q catalytic inactive proteins (data not shown,Significant activity was not observed with substrates ... with incubation with purified ADAMTS-7 E389Q catalytic inactive proteins (data not shown,Significant activity was not observed with substrates ... with incubation with purified ADAMTS-7 E389Q catalytic inactive proteins (data not shown,
B3,,,,,,,,,,,,,,,It was surprisingly found that the same substrate could be used for the paralogs ADAMTS-7 and ADAMTS-12
